B1: C-terminally Halo-tagged full-length zyxin (zyxin-Halo) (natural protein, human, UniProt Q15942 1-572, looked up)
chain: MAAPRPSPAISVSVSAPAFYAPQKKFGPVVAPKPKVNPFRPGDSEPPPAPGAQRAQMGRVGEIPPPPPEDFPLPPPPLAGDGDDAEGALGGAFPPPPPPIEESFPPAPLEEEIFPSPPPPPEEEGGPEAPIPPPPQPREKVSSIDLEIDSLSSLLDDMTKNDPFKARVSSGYVPPPVATPFSSKSSTKPAAGGTAPLPPWKSPSSSQPLPQVPAPAQSQTQFHVQPQPQPKPQVQLHVQSQTQPVSLANTQPRGPPASSPAPAPKFSPVTPKFTPVASKFSPGAPGGSGSQPNQKLGHPEALSAGTGSPQPPSFTYAQQREKPRVQEKQHPVPPPAQNQNQVRSPGAPGPLTLKEVEELEQLTQQLMQDMEHPQRQNVAVNELCGRCHQPLARAQPAVRALGQLFHIACFTCHQCAQQLQGQQFYSLEGAPYCEGCYTDTLEKCNTCGEPITDRMLRATGKAYHPHCFTCVVCARPLEGTSFIVDQANRPHCVPDYHKQYAPRCSVCSEPIMPEPGRDETVRVVALDKNFHMKCYKCEDCGKPLSIEADDNGCFPLDGHVLCRKCHTARAQT
modifications: Janelia Fluor 646 Halo-ligand conjugated to the Halo tag
notes: zyxin, human, full length; pCAG vector with a C-terminal 3C protease cleavage site and eGFP tag; eGFP removed with 3C protease on the resin; also called zyxin^WT; zyxin-Halo:JF646; source: HEK293F, transfected, purified (anti-GFP nanobody resin, 3C protease, Mono Q, SEC); not shown: Halo, C-terminal, kept; eGFP, C-terminal, cleaved
B3: C-terminally Halo-tagged VASP (VASP-Halo) (natural protein, human, UniProt P50552 1-380, looked up)
chain: MSETVICSSRATVMLYDDGNKRWLPAGTGPQAFSRVQIYHNPTANSFRVVGRKMQPDQQVVINCAIVRGVKYNQATPNFHQWRDARQVWGLNFGSKEDAAQFAAGMASALEALEGGGPPPPPALPTWSVPNGPSPEEVEQQKRQQPGPSEHIERRVSNAGGPPAPPAGGPPPPPGPPPPPGPPPPPGLPPSGVPAAAHGAGGGPPPAPPLPAAQGPGGGGAGAPGLAAAIAGAKLRKVSKQEEASGGPTAPKAESGRSGGGGLMEEMNAMLARRRKATQVGEKTPKDESANQEEPEARVPAQSESVRRPWEKNSTTLPRMKSSSSVTTSETQPCTPSSSDYSDLQRVKQELLEEVKKELQKVKEEIIEAFVQELRKRGSP
modifications: Janelia Fluor 549 Halo-ligand conjugated to the Halo tag
notes: VASP (vasodilator-stimulated phosphoprotein), human; also called VASP^WT; VASP-Halo:JF549; source: E. coli Rosetta2(DE3), purified (Ni-NTA, StrepTrap XT, 3C protease, SEC); not shown: Strep-Tag II, N-terminal, cleaved; Halo, C-terminal, kept; 6xHis-Tag, C-terminal, cleaved

Columns and labels:
Conditions in all cases: both partners purified
[1] = biological target: T1, C-terminally Halo-tagged ɑ-actinin-1 (ɑ-actinin-Halo) (human, UniProt P12814 1-892, Janelia Fluor 549 Halo-ligand (TIRF assays) or Alexa Fluor 488 Halo-ligand (droplet assays) conjugated to the Halo tag; unlabeled in the bundle assays); assay: TIRF microscopy, force reconstitution assay with purified proteins; immobilised myosins, 30% ATTO 488-labeled F-actin, 25 nM (or 250 nM) zyxin-Halo:JF646 and 50 nM ɑ-actinin-Halo:JF549 in MBOS, +ATP (myosin forces); room temperature
T1 construct: ɑ-actinin-1, human; also called ɑ-actinin^WT; ɑ-actinin-Halo:JF549; source: E. coli Rosetta2(DE3), purified (Ni-NTA, TEV protease, HiTrap Q HP, SEC); not shown: 6xHis-Tag, N-terminal, cleaved; Halo, C-terminal, kept
T1 sequence (P12814 whole entry): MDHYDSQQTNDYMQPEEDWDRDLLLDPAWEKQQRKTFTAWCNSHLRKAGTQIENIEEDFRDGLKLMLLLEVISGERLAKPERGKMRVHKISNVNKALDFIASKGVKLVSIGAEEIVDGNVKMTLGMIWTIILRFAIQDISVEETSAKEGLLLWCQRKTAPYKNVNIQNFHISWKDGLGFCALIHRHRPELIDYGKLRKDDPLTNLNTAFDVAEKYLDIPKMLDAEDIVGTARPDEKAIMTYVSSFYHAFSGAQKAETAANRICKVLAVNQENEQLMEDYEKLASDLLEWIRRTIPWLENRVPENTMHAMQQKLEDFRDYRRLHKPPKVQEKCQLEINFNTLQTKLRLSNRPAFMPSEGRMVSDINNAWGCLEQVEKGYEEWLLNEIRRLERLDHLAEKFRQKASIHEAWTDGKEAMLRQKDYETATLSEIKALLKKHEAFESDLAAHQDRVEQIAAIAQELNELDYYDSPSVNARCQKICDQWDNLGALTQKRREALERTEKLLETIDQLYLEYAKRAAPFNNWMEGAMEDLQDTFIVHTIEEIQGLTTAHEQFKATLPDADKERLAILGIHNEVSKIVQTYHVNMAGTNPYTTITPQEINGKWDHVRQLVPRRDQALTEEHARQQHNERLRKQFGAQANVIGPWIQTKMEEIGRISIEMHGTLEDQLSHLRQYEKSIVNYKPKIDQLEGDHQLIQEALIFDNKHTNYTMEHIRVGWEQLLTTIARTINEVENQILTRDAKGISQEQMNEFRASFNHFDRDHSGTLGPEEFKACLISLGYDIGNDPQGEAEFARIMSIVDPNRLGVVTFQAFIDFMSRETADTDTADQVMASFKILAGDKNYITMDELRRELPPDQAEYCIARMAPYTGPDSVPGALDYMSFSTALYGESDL

[2] = biological target: B3; assay: droplet co-partitioning (iSIM fluorescence microscopy); zyxin construct, VASP and ɑ-actinin mixed together in MBOS with 3% PEG 8K, room temperature; small clusters also without PEG 8K at native cellular concentrations
[3] = biological target: B1; assay: as above

B1: binds [1].

B2: minimal zyxin construct with the N-terminal binding motifs (amino acids 1–160), Halo-tagged (domain or fragment, human, UniProt Q15942 1-160, looked up)
chain: MAAPRPSPAISVSVSAPAFYAPQKKFGPVVAPKPKVNPFRPGDSEPPPAPGAQRAQMGRVGEIPPPPPEDFPLPPPPLAGDGDDAEGALGGAFPPPPPPIEESFPPAPLEEEIFPSPPPPPEEEGGPEAPIPPPPQPREKVSSIDLEIDSLSSLLDDMTK
modifications: Janelia Fluor 646 Halo-ligand conjugated to the Halo tag
notes: zyxin, human, amino acids 1–160; also called zyxin^N-term; source: HEK293F, transfected, purified (anti-GFP nanobody resin, 3C protease, Mono Q, SEC); not shown: Halo, C-terminal, kept; eGFP, C-terminal, cleaved
B2: binds [2].

B3: binds [3].

Source: publication doi:10.1101/2024.05.17.594765, “Force-activated zyxin assemblies coordinate actin nucleation and crosslinking to orchestrate stress fiber repair” (bioRxiv, 2024)
